According to paper PMC3981948 (Mucosal immunology, 2013):

Experiments:
[1] = target: T1, purified wild type CEACAM5 (human, UniProt P06731-1 35-685); assay: SPR
T1 sequence (looked up): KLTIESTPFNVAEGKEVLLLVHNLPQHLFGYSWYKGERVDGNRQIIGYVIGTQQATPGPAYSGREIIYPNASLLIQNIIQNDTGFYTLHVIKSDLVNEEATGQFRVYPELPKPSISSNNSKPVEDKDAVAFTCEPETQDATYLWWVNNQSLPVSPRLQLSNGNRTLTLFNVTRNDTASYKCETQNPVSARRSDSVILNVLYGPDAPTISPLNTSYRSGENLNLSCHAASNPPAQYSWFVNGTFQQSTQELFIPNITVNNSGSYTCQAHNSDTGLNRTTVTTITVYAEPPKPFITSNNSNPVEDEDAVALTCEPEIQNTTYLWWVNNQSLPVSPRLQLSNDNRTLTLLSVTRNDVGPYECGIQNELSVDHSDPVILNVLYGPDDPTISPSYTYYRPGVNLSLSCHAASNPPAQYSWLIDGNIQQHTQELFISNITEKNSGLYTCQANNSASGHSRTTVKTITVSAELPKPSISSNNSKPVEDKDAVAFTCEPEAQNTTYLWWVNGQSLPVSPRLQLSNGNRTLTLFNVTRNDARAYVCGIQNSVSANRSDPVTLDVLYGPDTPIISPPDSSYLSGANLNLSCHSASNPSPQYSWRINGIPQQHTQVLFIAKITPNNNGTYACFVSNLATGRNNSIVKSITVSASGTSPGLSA

[2] = target: T2, purified CEACAM5 mutant N70,81A (human, UniProt P06731-1 35-685, N70,81A | N70,81A); assay: SPR
T2 sequence (looked up): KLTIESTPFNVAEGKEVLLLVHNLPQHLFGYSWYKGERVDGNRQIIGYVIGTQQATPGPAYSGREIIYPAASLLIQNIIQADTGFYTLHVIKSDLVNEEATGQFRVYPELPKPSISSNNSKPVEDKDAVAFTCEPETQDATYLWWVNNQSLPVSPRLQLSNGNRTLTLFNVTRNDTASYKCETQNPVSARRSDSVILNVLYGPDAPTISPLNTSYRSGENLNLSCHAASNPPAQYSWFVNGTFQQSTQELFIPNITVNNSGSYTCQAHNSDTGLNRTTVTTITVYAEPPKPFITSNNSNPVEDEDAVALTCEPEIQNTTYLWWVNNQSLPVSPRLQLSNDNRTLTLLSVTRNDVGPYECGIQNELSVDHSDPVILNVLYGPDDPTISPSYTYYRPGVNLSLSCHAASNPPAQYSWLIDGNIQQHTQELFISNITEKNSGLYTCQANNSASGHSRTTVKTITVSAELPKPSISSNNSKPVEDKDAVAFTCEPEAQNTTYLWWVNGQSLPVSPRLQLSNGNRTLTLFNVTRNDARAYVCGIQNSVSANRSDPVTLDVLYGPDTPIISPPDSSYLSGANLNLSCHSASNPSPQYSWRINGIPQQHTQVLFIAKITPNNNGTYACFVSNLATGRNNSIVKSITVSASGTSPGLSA

Kd [1]: 0.022 µM
koff [1]: 0.00056 s⁻¹
kon [1]: 26000 M⁻¹ s⁻¹
Kd [2]: 16 µM
koff [2]: 0.0047 s⁻¹
kon [2]: 290 M⁻¹ s⁻¹
B1: purified extracellular domain of CD8α (domain or fragment)
chain: not shown
